Target: mouse TNFR1 on L929 cells (mouse) (UniProt P25118)
Test: cell-based or functional assay

mouse TNFR1 on L929 cells (mouse), sequence (P25118 30-454): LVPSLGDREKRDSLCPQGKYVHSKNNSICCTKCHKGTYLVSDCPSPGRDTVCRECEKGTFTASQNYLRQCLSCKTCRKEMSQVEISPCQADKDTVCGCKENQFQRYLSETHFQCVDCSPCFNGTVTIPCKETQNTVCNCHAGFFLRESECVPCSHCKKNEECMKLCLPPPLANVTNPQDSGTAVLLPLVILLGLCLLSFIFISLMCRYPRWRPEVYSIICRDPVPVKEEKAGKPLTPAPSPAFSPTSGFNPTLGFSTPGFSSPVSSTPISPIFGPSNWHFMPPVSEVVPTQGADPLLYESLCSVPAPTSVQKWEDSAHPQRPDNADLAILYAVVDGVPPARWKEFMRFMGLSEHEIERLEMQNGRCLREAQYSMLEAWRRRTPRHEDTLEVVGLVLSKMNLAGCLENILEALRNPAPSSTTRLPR

Which ND50 of induced cytotoxicity, modified L929 assay without TNF-α does the source give for “anti-TNFR1 antibody AF-425-PB (R&D Systems)” here?
The ND50 of induced cytotoxicity, modified L929 assay without TNF-α was 100 pM.

Which ND50 of cell killing, modified L929 assay without TNF-α does the source give for “anti-TNFR1 antibody MAB430 (R&D Systems)” here?
The ND50 of cell killing, modified L929 assay without TNF-α was 10 nM.

Source: patent US20080008713A1
